The nanobody polyreactivity screen of Harvey et al. (2022)

Assay: yeast display, Sf9 membrane polyspecificity reagent, FACS + sequencing; frameworks hold sequencing errors
In short: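 After 36–48 hours of galactose induction, yeast (Saccharomyces cerevisiae BJ5465) displaying a synthetic nanobody library were stained at 4 °C for 1 hour with 10% biotinylated, detergent-solubilized Sf9 membrane reagent. Streptavidin microbeads enriched the stained cells before FACS sorting into low and high (top ~1%) gates on anti-HA and streptavidin fluorescence. Each clone's polyreactivity label reflects its gate of origin.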

Sequence | polyreactivity (PSR sort gate)
QGQLVESGGGLVQAGGSLRLSCAASGRIVGPNTMGWSRQAPGKERELVAAISSGGGTYYADSVKGRFTISRDNAKNTVYLQMNSLKPEDTAVYYCAADYTTLKLYYWFDYWGQGTHVTVSS | low polyreactivity
QGQLVESGGGLVQAGGSLRLSCAASGRTFSVNDMGWYRQAPGKERELVAAMSFSGGRTYYADSVKGRFTISRDNAKNTVYLQMNSLKPEDTAVYYCAADIRGYDYWGQGTQVTVSS | high polyreactivity
QGQLVESGGGLVQAGGSLRLSCAASGSIFPDYAMGWYRQAPGKERELVAAITWRDDSTYYADSVKGRFTISRDNAKNTVYLQMNSLKPEDTAVYYCIASALDPLYAKDDYWGQGTQVTVSS | low polyreactivity
QGQLVESGGGLVQAGGSLRLSCAASGSIFPYNDMGWYRQAPRKERELFAAINSDGSTDYADSVKGRFTISRDNAKNTVYLLMKSLKPEDTAVYDCNGDYVATFLSPPTSVSYGYWGQVTQVTVSS | low polyreactivity
QGQLVESGGGLVQAGGSLRLSCAASGSIFYRNAMGWYRQAPGKERELVAAISYSGGSTYYADSVKGRFTISRDNAKNTVYLQMNSLKPEDTAVYYCAKDYPTPISDYSRYYGYGYWGQGTQVTVSS | low polyreactivity
QGQLVESGGGLVQAGGSLRLSCAASGSTFPTNSMGWYRPAPGNDRELVAAITGGASTYYADSVKGRFTISRDNAKNTVYLQMNSLKPEDTAVYYCAADDSWFYYGYGYWGQGTQVTVSS | low polyreactivity
QGQLVESGGGLVQAGGSLRLSCAASGTFSPYAMGWYRPAPGKERELVAVITSNTGRTYADSVKGRFTISRDNAKNTVYLQMNSLKPEDTAVYYCASRSTYRHWYRTGSRFDYWGQGTQVTVSS | low polyreactivity
QGQLVESGGGLVQAGGSLRLSCAASGYIFNPNAMGWYRQGPGKERDLFAGITWRGDRTYYADSVKGRFTISRDNAKNTVYLQMNCLKPEDTAVYYCNGAGADRWSYSSNIRRYYYWGHGTQVTVSS | high polyreactivity
QGQLVESGGGLVQAGGSLRLSCAASGYIIRAYAMGWYRQAHGKERELVAAISSRGGSTYYADSVKGRFTISRDNAKNTVYLQMNSLKPEDTAVYYCAAAYRQPYIGYGYWGQGTQVTVSS | high polyreactivity
QGQLVESGGGLVQAGGSLRLTCAASGSIFYVYDIGWYRPAPGKERELVANIRDGGITYADSVKGRFTISRDNAKYTVYLQMNSLKPEDTAVYYCARDDTSPGYGDQSSNAAYYYWGQGTQVTVSS | low polyreactivity
QGQLVESGGGLVQGGGSLRFSCAASGITFQRYALGGYRQAPGKDRALVAAIRRSGTSTYYADSVKGRFPITRHNAKNPVHLQMNSLKPEDTAVKYCAAGSYPTEGSKYGYWGQGTQVTGSS | high polyreactivity
QGQLVESGGRLVQAGGSLRLSCAASGFIFDAYAMGWYRQAPWKERELVAAIDYSGGNTYYADSVTGRFTISRDNAKNTVYLQMNSLTPEDTAVYYCNADYAGSFWSREYDYWGQGTQVTVSS | low polyreactivity
QGQLVESGVGLVQAGGSLRLSCAASGLTFSWYAMGWYRQAPGKERELVAVITTSGGSTYYSDSVKGRFTISRDNAKNTVYLQMNSLKPEDTAVYYCAVGVPSWEFDYWGQGTHVTVSS | low polyreactivity
QGQLVESWGGLVQAGGSLRLICAASGFNLGRYAKGWYRQAPGKERELVAAISIGGRTNYADSVKERFTISRDNSKTSVYLHLKSLKPEVTAVYYSAADVRGSAYTTGDYWGQGTQVTVTS | low polyreactivity
QGQLVETGGGLVQAGGSLRLSCAASGRIFDDNAMGWYRQAPGKERELVASITVSTGSTYYADSVKGRFTISRDNAKNTVYLKMNSLKPEDTAVYYCAKDNSLPDYDYWGQGSQVTVSS | low polyreactivity
QGQRVESGGGLVQAGGSLRLSCAASGFIFSYYTMGWYRQAPGKERELVAAISSTGRTNYADSVKGRFTISRDNAKHTVYLQMNSLKPDDTAFYYCNAAKLSYGPWRGYYKLDVWGQGTQVTVSS | high polyreactivity
QGQRVESGGGLVQAGGSLRLSCAASGRIFTFYAMGWYRPAPGKERELVAAITWGDGSTYYADSVKGRFTISRDNAKNTVYLQMNSLKPEDTAVYYCNKTYIDTTVYVVIMDYWGQGTQVTVSS | low polyreactivity
QGQRVESGGGLVQAGGSLRLSCAASGRIFTQYAMGWYRQAPGKARELVAASNASDGSTYADSVKGRFTISRDNAKNTVYIQINSLKPEDTAVYYCNVTGGPYDFTRWSEFDHWGQGTHVTVSS | low polyreactivity
QGQRVESGGGLVQAGGSLRLSCAASGSTFPWYAMGWYRQARGSERELVAGISEGGASTYYADSVKGRFTISRDNAKNTVYLQMNSLNPEDTAVYYCAADQVGAVYWVGEYGYWGQGTHVTVSS | low polyreactivity
QIQLVESCGGLVQPGGSLRLSCAASGFTFYRYSRGWYRQAPGKERELVAPISTSGVSTYYADSVKGRFTISRDNAKNTVYLQMNSLKPEDTAVYYWAASAGPRASYYYWGQGTQVTVSS | high polyreactivity

Sequence | polyreactivity (PSR sort gate)
QIQLVESGGGIVQAGGSLRLSCAASGFIFNTYDMGWYRQAPGKEMELVAVITSGGTTNYADSVKGRFTISRDNAKNTVYLQINCLKPEDTAVYSCNRDSVLDPGNPKPYVFDYWGQGTQVTVSS | low polyreactivity
QIQLVESGGGLVQAGGSLRLSCAASGFTFYYYVMGWYRQAPGKERELVAAISSRGGSTYYADSVKGRFTISRDNAKNTVYLQMNSLKPEDTAVYYCAATYWPYRPGYYYWGQGTQVTVSS | high polyreactivity
QLHLVESAGGLVQAGGSLRLSCVYSGLTQPYAMGWYRHAPGKEREWVAGITCRGASTYYADSVKGRFTISRDNAKNTVYLQLNSLKPEDTAVYYCAARSTIQRRGYYGYRVGLSEYGYWGQGTQVTVSS | low polyreactivity
QLKHVESGGGLVQAGGSLRLSCAASVGTFGLNAMGRYRQAPGKERELVADIDGRGGSTYYADSVKGRFTISRDNAKNTVNLQMNTLKPEDTAVYYCAARAPFLSVPSELDYCGQGTQVTVSS | low polyreactivity
QLKLEESGGRLVQAGGSLRLSCASSGRTFTYYVMGCYRQAPGKERELVAAISDSGGSTYYADSVKGRFTISRDNAKNTVYLQMNSLKPEDTAVYYCATDSYWYRLREYNYWGQGTQVTVSS | high polyreactivity
QLQHVESGGGLVQAGGSLRLSCAGTGRIMWRNAMGWYRQAPGKEMELVAAITSGSRTSYADSVKGRFTISRDNSKNTVYLQMNSLKPEDTAVYYCARRSYGIYYRSADESWGQGTQVTVSS | high polyreactivity
QLQLEESGGGLVQAGGSLRLSCAASANTIYQYAMGRYRQAPGKERELVAAIDWSGGSTYADSVKGRFTISRDNAKNTVYLQMNSLKPEDTAFYYCNASVKPSNVWSRGYDYWGQGTQVTVSS | low polyreactivity
QLQLEESGGGLVQAGGSLRLSCAASGFIFYSNAMGWYRKAPGKERELVASIPGDGGTTYYADSVKGRFTISRDNAKNTVYLQMNSLKPEDTAFYYCAKDYIYRGYYTDFRYEDYEYWGQGTQVTVSS | low polyreactivity
QLQLEESGGGLVQAGGSLRLSCAPSGSILNIYAMGWYRQAPGKERELVAVITSGTNTNYAVSVKGRFTISRDNAKNTVYLQMNSRKPEDTAVYYCNDEKYWWGYEYWGQGTQVTVSS | high polyreactivity
QLQLEESGGGLVQAGGSLRLSSAASGSIFYPNVMGWYRQAPGKERELVAAISWGGTSTNYADSVKGRFTISRDNAKNTVYLQMNSLKPEDTAVYYCAARTYWYGYNYWGQGTQVTVSS | high polyreactivity
QLQLGESGRGGVQAGGSLRVSCAPSGLPFIYYAMGWYRPAPGKVRELVATISQSGSSTYYADSVKGRFTSSRDHATNTVDLQMNSLKPADTAVDYCNVSSVRWARFDYWGQGTQVTVSS | high polyreactivity
QLQLQESGGGLVQADGSLRLSCAASGSIFGYYYMGWYRQAPGKDRELVATINICGITNYADSVKGRFTISRDNAKNTVYLQMNSLKPDDTAVYYCAADEYAQRDLGYWGQGTQVTVSS | low polyreactivity
QLQLQESGGGLVQAGGSLRLSCAASALITKVYSMGWYRQAPGKERELVAVINSNGGSTYYADSVKGRFTISRDNAQNTVYLQMNSLKPEDTAVYYCRYFRPYGYNYWGQGTQVTVSS | high polyreactivity
QLQLQESGGGLVQAGGSLRLSCAASGNISVTGFMGWYRQAPGKERELVASIGIGGTTYYADSVKGRFSISRDNAKNTVYLQMNSLKPEDTAVYYCAARYLYYAYSYWGQGTQVTVSS | low polyreactivity
QLQLVDSGGGLVQAGGSLRLSCAASGRIFSANAMGWYRQAPGKERELVAAIDGSDGITYYADSVKGRFTISRDNAKNTVYLQMNSLKPEDTAVYYCAAYLPYTTYRYRYDYWGQGNQVTVSS | high polyreactivity
QLQLVESGGCLVQAGGSLRLSCAASGIIFVVNDMGWYRQAPGNARELVADISDSGGSTNYADSVKGRFTISRDNAKNSVYLQMNSLKPEDTAVYYCAADSADPTEYDYWGQGTQVTLSS | low polyreactivity
QLQLVESGGGLFQAGGSLRLSCAPSGFIFTAYTMGWYRQAHGKESELVAAIDSGGGTYYADYVKGRFTISRYNAKNTVYLQIHSLKPDDTAVYYCAADPAKSRAGDFDYWGQGTQVTVSS | high polyreactivity
QLQLVESGGGLVQAGASLRLSCAASGSILWPSARGWYRQAPGKERELVAAISTGGSTYYADSVKGRFTISRDNAKNTVYLQMNSLKPEDTAVYYCAAYVDYSVYFGGGYWGQGTQVTVSS | low polyreactivity
QLQLVESGGGLVQAGGSLRLICADSGRTFPSNTMGWYRQAPGKERELVAAITNSGGSTYYADSVKGRFTISRDNAKNTVYLQMNSLKPEDTAVYYCAKVVGAPYVEYDYWGQGTQVSVSS | low polyreactivity
QLQLVESGGGLVQAGGSLRLSCAASGFIFPDYAMGWYRQAPGTERELVAAMRIRDGSTYYADSVKGRFTISRDNAKNTVYLQMNSLKPEAPAVYYCAVRSSYGYSDTNYIMYYWGQGTQVTVSS | low polyreactivity
